Results published in article PMC12562601.

How the values were obtained:
[1] = molecular target: α3β2 nicotinic acetylcholine receptor (human) (UniProt P32297)
[2] = molecular target: low-sensitive (LS) (α4)3(β2)2 nicotinic acetylcholine receptor (human) (UniProt P43681)
[3] = molecular target: high-sensitive (HS) (α4)2(β2)3 nicotinic acetylcholine receptor (human) (UniProt P43681)

Measured: Maximal inhibition of ACh-evoked currents, % (single level fitted for all three datasets), two-electrode voltage clamp in X. laevis oocytes

Chain of UniProt P32297 (P32297 32-505, chain 1 of 2): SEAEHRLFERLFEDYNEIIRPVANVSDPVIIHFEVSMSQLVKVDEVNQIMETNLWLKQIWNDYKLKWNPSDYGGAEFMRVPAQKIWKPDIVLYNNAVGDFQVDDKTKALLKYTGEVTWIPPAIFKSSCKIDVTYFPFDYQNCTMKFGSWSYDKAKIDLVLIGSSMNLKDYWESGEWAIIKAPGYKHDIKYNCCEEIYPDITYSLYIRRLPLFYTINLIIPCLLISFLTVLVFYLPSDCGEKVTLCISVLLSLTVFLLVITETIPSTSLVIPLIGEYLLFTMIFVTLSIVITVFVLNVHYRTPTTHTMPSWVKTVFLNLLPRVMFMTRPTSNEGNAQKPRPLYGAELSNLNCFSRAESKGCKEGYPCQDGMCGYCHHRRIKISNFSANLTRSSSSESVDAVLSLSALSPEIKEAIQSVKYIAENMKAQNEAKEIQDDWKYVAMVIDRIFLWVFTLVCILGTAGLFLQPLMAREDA
Chain of UniProt P32297 (P17787 26-502, chain 2 of 2, further chain): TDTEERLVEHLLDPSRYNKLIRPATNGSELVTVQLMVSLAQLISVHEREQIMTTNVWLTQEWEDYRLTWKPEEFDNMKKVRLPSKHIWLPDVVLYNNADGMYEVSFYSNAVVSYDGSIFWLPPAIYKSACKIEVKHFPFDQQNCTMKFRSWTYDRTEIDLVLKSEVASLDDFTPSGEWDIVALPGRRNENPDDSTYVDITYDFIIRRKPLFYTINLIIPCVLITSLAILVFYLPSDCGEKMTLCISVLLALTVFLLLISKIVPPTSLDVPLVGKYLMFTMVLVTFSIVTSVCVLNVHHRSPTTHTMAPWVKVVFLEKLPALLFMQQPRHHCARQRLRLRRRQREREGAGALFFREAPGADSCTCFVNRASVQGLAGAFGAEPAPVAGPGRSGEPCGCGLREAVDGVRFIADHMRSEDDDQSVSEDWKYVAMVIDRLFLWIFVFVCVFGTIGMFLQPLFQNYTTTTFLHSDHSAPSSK

water-soluble recombinant analog of human prostate stem cell antigen (ws-PSCA) (domain or fragment)
31%: all assays above
